The target in data set [1] is T1, hnRNP H RRM domain (RRM1/2) (UniProt P31943 P31943:11-188).
T1 sequence: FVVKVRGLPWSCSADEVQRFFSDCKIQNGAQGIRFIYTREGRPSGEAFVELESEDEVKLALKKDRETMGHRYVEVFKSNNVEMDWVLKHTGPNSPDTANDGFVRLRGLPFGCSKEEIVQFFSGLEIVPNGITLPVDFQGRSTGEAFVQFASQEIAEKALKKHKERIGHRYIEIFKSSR
In words: 1H-15N HSQC NMR titration at 1:0.5, described as potent binding; 20 mM potassium phosphate, 70 mM KCl, pH 7.0, 25 C. As to conditions: tags: His6 cleaved by 3C protease; pET-28a(+), E. coli BL21(DE3); 15N-labelled; G4. Here is the method: (§1) Titration experiments were performed by recording a series of 2D ¹⁵N-HSQC spectra on uniformly ¹⁵N-labeled RRM domain (˜0.1 mM) in the presence of different amounts of DNA/RNA or compounds at 25° C. Protein samples and stock solutions of DNA/RNA were all prepared in 20 mM potassium phosphate buffer and 70 mM KCl, pH 7.0, 10% D₂O. All compounds were dissolved in isotope-labeled d₆-DMSO (Sigma-Aldrich) at about 50 mM concentration, working as stock solutions. To avoid chemical shift changes of protein samples resulted from d₆-DMSO addition, 10 μL d₆-DMSO was added into 500 μL of 0.1 mM protein solution in the NMR buffer (20 mM potassium phosphate buffer and 70 mM KCl, pH 7.0, 10% D₂O) and then the 2D HSQC was recorded as a reference.

The target in data set [2] is T1, hnRNP H RRM domain (RRM1/2). The experiment in a line: 1H-15N HSQC NMR titration at 1:0.5; 20 mM potassium phosphate, 70 mM KCl, pH 7.0, 25 C. As to conditions: tags: His6 cleaved by 3C protease; pET-28a(+), E. coli BL21(DE3); 15N-labelled; G4. The method, then:
as §1

B1: DNA (G4C2)4 G4 (structured_DNA)
DNA: GGGGCCGGGGCCGGGGCCGGGGCC
Regarding B1, the binding result in data set [1] is recorded as “binds”.

B2: RNA (G4C2)2 G4 (ssRNA)
RNA: GGGGCCGGGGCC
As for B2, in data set [2], the binding result is on record as “binds”.

The values are drawn from patent US20220112180, “NOVEL COMPOUNDS AS POTENTIAL THERAPEUTIC AGENTS TARGETING VARIOUS NEURODEGENERATIVE DISEASES” (The Hong Kong University of Science and Technology, published 2022).
